The text below walks through data of patent publication US20050036947A1, “Target-specific activatable polymeric imaging agents” (General Electric Company, priority 2003, published 2005).

A short description of data set [1]: Relaxivity of the contrast agent (effect on T1 relaxation of water protons). In kind it is physicochemical. The conditions noted are these: for relaxivity: globular vs elongated conformation. From the text: When the carrier molecule is in an elongated conformation, the chelator entity, which provides the MR activity, is free to rotate about its attachment point to the main chain, allowing a […] T1 relaxation time of the surrounding water protons, which are the source of the MR signal. When the carrier molecule is in a globular or highly folded conformation, the paramagnetic ions on the chelator entities tumble at a slower rate (along with the entire molecule). […] A low relaxivity or long relaxation time is associated with an elongated molecule such as a highly substituted Gd-DTPA-PLL, in which the Gd can rotate rapidly, having a relaxivity of about 8 sec^−1 mM^−1. When the relaxivity of a peptide contrast agent was high, the uptake coefficient of such an agent was invariably low, evidently due to the absence of a reptation movement of the contrast agent molecule, resulting in the exclusion of the contrast agent from narrow passages. Thus, it is important to establish that the peptides being compared for optimum length are all of the same conformation.

Data set [2] is described as follows: Cross-sectional diameter of the conjugated polymer. In kind it is physicochemical. The conditions noted are these: highly conjugated.
In data set [3] the test system is α-fetoprotein (“AFP”) receptor. The settings on record: MCF-7 human breast cancer cells; cited from earlier work.

Where no end group is shown, it is not given here. [ ]: non-standard residue; d: D form. Hyp = O=C(O)[C@@H]1C[C@@H](O)CN1

In the case of Gd-DTPA-PLL, the relaxivity result in data set [1] is reported as “about 8 sec^−1 mM^−1”. For the same substance, the relaxivity in bulk water in data set [1] (highly conjugated (degree of conjugation about 90 percent or higher)) is 6.8 to 7.8 mM⁻¹ s⁻¹. For the same substance, in data set [2], the cross-sectional diameter result is reported as “about 25 angstroms”.

For the substance “EMTOVNOGQ (EMT[Hyp]VN[Hyp]GQ; also: cyclic, mode not given here) [cyclic peptide; O represents 4-hydroxyproline]”, the “bind to α-fetoprotein (“AFP”) receptor” value in data set [3] is “bind”.

For albumin, the relaxivity result in data set [1] is reported as “about 15 sec^−1 mM^−1”.

Turning to “EMTOVNOG (EMT[Hyp]VN[Hyp]G) [linear octapeptide; O represents 4-hydroxyproline]”, the “bind to α-fetoprotein (“AFP”) receptor” value in data set [3] is “bind”.
